Assay results taken from PMC3462001.

Target: Gab1 (UniProt Q9QYY0)
Assay: co-immunoprecipitation, immunoblot
Details: reference: wild-type PAR3 with PAR1b; sites S144,S873

- binding against the reference: stronger
Substance: PAR3 (from UniProt Q8TEW0) PAR3 S144A/S873A with PAR1b
